Experimental data: patent US8993248B2, “Truncated human vitamin D binding protein and mutation and fusion thereof and related materials and methods of use” (Abbott Laboratories, priority 2011, dated 2015)
Numbering of substitutions follows the chain as printed. Names may count otherwise.

Legend:
[1] = Storage stability of the protein by SDS-PAGE; type: physicochemical; details: protein expressed from HEK293 cells; room temperature, 2-8° C. and 37° C.; day 0, 3, 5, 7
Description: The hDBP4-hFc 3-6 protein expressed from HEK293 cells was tested for stability. hDBP4-hFc 3-6 protein (about 100 μl of 0.5 mg/ml) was stored at room temperature, 2-8° C., and 37° C. A sample of about 20 μl of hDBP4-hFc 3-6 was taken at day 0, 3, 5, and 7, mixed with 20 μl reduced 2× Laemmli sample buffer, and stored at 2-8° C. until SDS-PAGE gel analysis.

[2] = Reactivity of hDBP-hFc fusion proteins to 25-hydroxy vitamin D3-3-biotin (ELISA); type: binding; details: fusion protein produced as a dimer by HEK 293F transient transfection
Description: The hDBP3 open reading frame (ORF) was amplified by PCR and linked to hFc, which contained a short hinge region with the first six amino acids deleted (to increase secretion), through SOEing (splicing by overlapping extension) PCR. The fusion protein ORF was cloned in pBOS vector (acquired from Abbott Bioresearch Center, Worcester, Mass.) through Nru I/Not I restriction digestion. Secretion of the fusion protein was directed by IgG heavy chain secretion signal peptide. The fusion protein was produced as a dimer by human embryonic kidney (HEK) 293F transient transfection. However, its reactivity to 25-hydroxy vitamin D3-3-biotin was weak.
The hDBP4 ORF was amplified from the pYD vector and linked to hFc through SOEing PCR. The fusion protein ORF was cloned in pBOS vector through Nru I/Not I restriction digestion. Secretion of the fusion protein was directed by IgG heavy chain secretion signal peptide. The fusion protein was produced as a dimer by HEK 293F transient transfection. Its reactivity to 25-hydroxy vitamin D3-3-biotin was confirmed by ELISA.
The hDBP3 mutant 3-6 was amplified from a pYD vector. The hFc with 56 amino acids from hDBP4 on its N-terminus was amplified from pBOS hDBP4-hFc. The two fragments were linked together through SOEing PCR. The resulting DNA vector was named pBOS hDBP4-hFc 3-6, which contained the two point mutations (S76A, S79A). […]

[3] = biological target: T1, yeast surface displayed hDBP3 (Homo sapiens, UniProt P02774); assay: Inhibition assay of free vitamin Ds on yeast surface displayed hDBP3; type: binding; details: for Ki: free vitamin D as inhibitor, yeast surface displayed hDBP3
T1 construct: made in house; host or cells: yeast (surface display, pYD vector)
T1 sequence (P02774 17-227): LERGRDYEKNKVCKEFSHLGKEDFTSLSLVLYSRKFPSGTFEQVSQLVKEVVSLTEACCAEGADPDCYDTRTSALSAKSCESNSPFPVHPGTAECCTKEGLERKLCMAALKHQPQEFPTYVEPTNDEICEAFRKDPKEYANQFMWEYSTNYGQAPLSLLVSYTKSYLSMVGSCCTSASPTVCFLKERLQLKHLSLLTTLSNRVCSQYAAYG
Description: Binding affinity of the hDBP3 truncate to vitamin D2, vitamin D3, 25-hydroxy vitamin D2, and 25-hydroxy vitamin D3 was determined.

[4] = biological target: T2, hDBP4-hFc 3-6 protein coated on microparticles (Homo sapiens, UniProt P02774, S92A/S95A); assay: Effect of displacement agent on microparticle DBP assay on the Abbott ARCHITECT instrument; type: binding; details: ANSA-present versus ANSA-free; FIG. 16
T2 construct: made in house
Description: For this study hDBP4-hFc 3-6 protein was coated on microparticles and binding was assessed on the Abbott ARCHITECT instrument to study the effect of adding a non-competitive displacement agent comprising 8-anilino-1-napthalenesulfonic acid ammonium salt (ANSA). ANSA separates any vitamin D metabolite in the sample from vitamin D binding protein to which the vitamin D metabolite is bound, was investigated. Microparticle diluent was used to remove ANSA in one condition (ANSA-free) but not the other (ANSA-present).

[5] = biological target: G-actin; details: read-out: Binding affinity for G-actin; cited from earlier work
[6] = Ligand titration of yeast surface displayed hDBP truncates; type: binding, human; details: for EC50: yeast surface displayed hDBP GC1S constructs, ligand 25-OH vitamin D3-3-biotin, read-out: Ag50 (antigen concentration at 50% of maximal binding signal); for Binding to the ligand 25-hydroxy vitamin D3-3-biotin, in words: compared to full-length hDBP
Description: A total of five hDBP truncates and the full-length hDBP (Table I) were cloned into pYD yeast display vector (Invitrogen) by polymerase chain reaction (PCR) and Nco I/Xho I restriction digestion.
Binding affinity to 25-hydroxy vitamin D3-3-biotin of each construct was measured by ligand titration (Table II). The Ag50 is the value (antigen concentration) generated at 50% of maximal binding signal, thus translating into the highest affinity. This testing was performed similar to that detailed in Friguet et al., J. Immunolog. Methods, 77:305-319 (1985).

[7] = Screen of the yeast-displayed hDBP3 mutation library (MACS/FACS, equilibrium competition staining); type: binding, human; details: relative to yeast surface-displayed hDBP3
Description: The library was screened by one round of Magnetic Activated Cell Sorting (MACS) and two rounds of Fluorescence Activated Cell Sorting (FACS) with equilibrium competition staining. […] Mutant 3-6 contained two point mutations (S76A, S79A). Plasmid DNA of this clone was isolated.

T2 sequence (P02774 with tags, fused parts or gaps S92A/S95A): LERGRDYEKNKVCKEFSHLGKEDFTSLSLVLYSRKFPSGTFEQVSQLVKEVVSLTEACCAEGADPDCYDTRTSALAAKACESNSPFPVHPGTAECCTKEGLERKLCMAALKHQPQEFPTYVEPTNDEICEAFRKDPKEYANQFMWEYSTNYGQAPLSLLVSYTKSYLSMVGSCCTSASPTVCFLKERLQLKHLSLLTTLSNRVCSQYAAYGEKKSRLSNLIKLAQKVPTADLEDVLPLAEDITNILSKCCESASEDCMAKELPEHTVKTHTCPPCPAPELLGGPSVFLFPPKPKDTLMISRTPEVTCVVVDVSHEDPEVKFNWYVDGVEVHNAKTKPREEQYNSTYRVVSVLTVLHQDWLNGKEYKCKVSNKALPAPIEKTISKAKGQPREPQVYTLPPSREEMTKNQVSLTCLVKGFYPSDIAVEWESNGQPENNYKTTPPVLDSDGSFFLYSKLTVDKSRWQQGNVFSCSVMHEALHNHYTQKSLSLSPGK

## hDBP4-hFc 3-6: hDBP3 mutant 3-6 (S76A, S79A) plus 56 amino acids of hDBP4 fused to hFc, SEQ ID NO:10; dimer
[1]
  Degradation on storage (SDS-PAGE 4-20%): no degradation
[2]
  Reactivity to 25-hydroxy vitamin D3-3-biotin: higher than wild-type fusion protein

## C=C1CC[C@H](O)C/C1=C/C=C1\CCC[C@]2(C)[C@@H]([C@H](C)CCCC(C)(C)O)CC[C@@H]12 [25-hydroxy Vitamin D3]
[3]
  Ki: 3.8 nM

## C=C1CC[C@H](O)C/C1=C/C=C1\CCC[C@]2(C)[C@@H]([C@H](C)/C=C/[C@H](C)C(C)(C)O)CC[C@@H]12 [25-hydroxy Vitamin D2]
[3]
  Ki: 6.4 nM

## C=C1CC[C@H](O)C/C1=C/C=C1\CCC[C@]2(C)[C@@H]([C@H](C)CCCC(C)C)CC[C@@H]12 [Vitamin D3]
[3]
  Ki: 2970 nM

## N.O=S(=O)(O)c1cccc2cccc(Nc3ccccc3)c12 [ANSA, 8-anilino-1-napthalenesulfonic acid ammonium salt]
[4]
  Effect on binding of vitamin D and tracer to DBP on the solid phase: disturbed the binding of vitamin D from the sample and tracer to the DBP on the solid phase

## C=C1CC[C@H](O)C/C1=C/C=C1\CCC[C@]2(C)[C@@H]([C@H](C)/C=C/[C@H](C)C(C)C)CC[C@@H]12 [Vitamin D2]
[3]
  Ki: 1390 nM

B1: DBP: Naturally occurring triple-domain, monomeric serum glycoprotein that binds and transports vitamin D (protein, UniProt P02774 17-474, looked up)
Vitamin D-binding protein: LERGRDYEKNKVCKEFSHLGKEDFTSLSLVLYSRKFPSGTFEQVSQLVKEVVSLTEACCAEGADPDCYDTRTSALSAKSCESNSPFPVHPGTAECCTKEGLERKLCMAALKHQPQEFPTYVEPTNDEICEAFRKDPKEYANQFMWEYSTNYGQAPLSLLVSYTKSYLSMVGSCCTSASPTVCFLKERLQLKHLSLLTTLSNRVCSQYAAYGEKKSRLSNLIKLAQKVPTADLEDVLPLAEDITNILSKCCESASEDCMAKELPEHTVKLCDNLSTKNSKFEDCCQEKTAMDVFVCTYFMPAAQLPELPDVELPTNKDVCDPGNTKVMDKYTFELSRRTHLPEVFLSKVLEPTLKSLGECCDVEDSTTCFNAKGPLLKKELSSFIDKGQELCADYSENTFTEYKKKLAERLKAKLPDATPTELAKLVNKHSDFASNCCSINSPPLYCDSEIDAELKNIL
[5]
  Kd: ~10 nM

B2: hDBP0 (Full-Length): Full-length human vitamin D binding protein, allele GC1S; domains I, II, III of 191, 187, 80 amino acids (protein, UniProt P02774 17-474, looked up)
Vitamin D-binding protein: B1 Vitamin D-binding protein
modifications: allele GC1S
notes: domains I, II, III of 191, 187, 80 amino acids
[6]
  EC50: 65 nM

B3: hDBP4: hDBP truncate: domain I plus about half of domain II, 56 amino acids longer than hDBP3, SEQ ID NO:14 (protein, listed as Homo sapiens)
chain: LERGRDYEKNKVCKEFSHLGKEDFTSLSLVLYSRKFPSGTFEQVSQLVKEVVSLTEACCAEGADPDCYDTRTSALSAKSCESNSPFPVHPGTAECCTKEGLERKLCMAALKHQPQEFPTYVEPTNDEICEAFRKDPKEYANQFMWEYSTNYGQAPLSLLVSYTKSYLSMVGSCCTSASPTVCFLKERLQLKHLSLLTTLSNRVCSQYAAYGEKKSRLSNLIKLAQKVPTADLEDVLPLAEDITNILSKCCESASEDCMAKELPEHTV
[6]
  Binding to the ligand 25-hydroxy vitamin D3-3-biotin, in words: retains binding affinity
  EC50: 95 nM

B4: hDBP3: hDBP truncate: domain I plus first α-helix of domain II (amino acids 1-211), SEQ ID NO:12 (protein, listed as Homo sapiens)
chain: T1 sequence (P02774 17-227)
[3]
  Binding preference among vitamin D2, vitamin D3, 25-hydroxy vitamin D2 and 25-hydroxy vitamin D3: preferentially bound to hydroxylated vitamin D213
[6]
  Binding to the ligand 25-hydroxy vitamin D3-3-biotin, in words: bound to the ligand with similar affinity to the full-length hDBP
  EC50: 83 nM

B5: 3-6: hDBP3 clone with two point mutations (S76A, S79A), SEQ ID NO:2 (protein, listed as Homo sapiens)
chain: T1 sequence (P02774 17-227) with S76A, S79A
[7]
  Increase in affinity to 25-hydroxy vitamin D3-3-biotin: six-fold increase in affinity
